Results taken from publication PMC2115537 (The Journal of Cell Biology, 1989).
Values belong to the binder of their own block, whether it stands above or below them.

Molecular target: F-actin (rabbit skeletal muscle actin filaments) (rabbit, UniProt P68135 1-377)
Assay: co-sedimentation

Kd: 1800 nM
B1: synapsin I phosphorylated on all three sites (natural protein)
chain: not shown
modifications: phosphorylated on all three sites (sites 1, 2 and 3); 2.6 mol phosphate/mol synapsin I

Kd: 2000 nM
B2: dephosphorylated synapsin I (natural protein)
chain: not shown
